The results in this text go back to US20250320281A1.

Common to all, as to assay: cell-based or functional assay
Experiment [1] has as its target HIV-1 Env of isolate 97ZA012 (clade C) (HIV-1 isolate 97ZA012).
Experiment [2] deals with HIV-1 Env of isolate 93IN905 (HIV-1).
In experiment [3] the target is HIV-1 Env of isolate MGRM-G-024 (HIV-1).
In experiment [4] the target is HIV-1 Env of isolate THR0.18 (Acute), clade B, on pseudovirus (HIV-1).
Experiment [5] addresses HIV-1 Env of pseudovirus MGRM-AG-005 (clade CRF_AG) (HIV-1).
Experiment [6] addresses HIV-1 envelope glycoprotein (Env) of isolate 92RW020, clade A (HIV-1).
Experiment [7] concerns the target HIV-1 envelope glycoprotein (Env) of isolate 92UG031, clade A (HIV-1).
For experiment [8], the target named is HIV-1 Env of isolate MGRM-D-024 (clade D pseudovirus) (HIV-1).
Experiment [9] has as its target HIV-1 Env of isolate MGRM-D-028 (clade D pseudovirus) (HIV-1).
In experiment [10] the target is HIV-1 Env of pseudovirus MGRM-AE-002 (clade CRF01_AE) (HIV-1).
The target of experiment [11] is HIV-1 Env of pseudovirus MGRM-G-006 (clade G) (HIV-1).
Experiment [12] addresses HIV-1 Env of isolate 92UG024 (clade D), on pseudovirus (HIV-1).
Experiment [13] addresses HIV-1 Env of pseudovirus MGRM-F1-016 (HIV-1).
Experiment [14] addresses HIV-1 Env of isolate MGRM-Chronic-B-008, clade B, on pseudovirus (HIV-1).
Experiment [15] has as its target HIV-1 Env of pseudovirus MGRM-G-017 (HIV-1, clade G isolate MGRM-G-017).
Experiment [16] addresses HIV-1 Env of isolate TRO.11 (Acute), clade B, on pseudovirus (HIV-1).
The target of experiment [17] is HIV-1 Env of isolate MGRM-G-019 (HIV-1).
For experiment [18], the target named is HIV-1 envelope glycoprotein (Env) of isolate MGRM-A-013, clade A (HIV-1).
Experiment [19] deals with HIV-1 Env of isolate NL43, clade B, on pseudovirus (HIV-1).
Experiment [20] has as its target HIV-1 Env of pseudovirus MGRM-AG-002 (clade CRF_AG) (HIV-1).
In experiment [21] the target is HIV-1 APV13 Env (pseudovirus) (HIV-1).
Experiment [22] concerns the target HIV-1 Env of pseudovirus isolate MGRM-G-025 (HIV-1).
Experiment [23] has as its target HIV-1 Env of isolate 93UG077 (HIV-1).
Experiment [24] deals with HIV-1 Env of isolate MGRM-Chronic-B-008 (subtype B) (HIV-1).
Experiment [25] has as its target HIV-1 Env of isolate MGRM-A-013 (subtype A) (HIV-1).
For experiment [26], the target named is HIV-1 envelope glycoprotein (Env) of isolate MGRM-C-015 (HIV-1).
Experiment [27] addresses HIV-1 Env of isolate MGRM-AG-009 (subtype AG) (HIV-1).
In experiment [28] the target is HIV-1 Env of isolate 94KE105 (subtype AC) (HIV-1).
For experiment [29], the target named is HIV-1 Env of isolate MG RM-D-011 (HIV-1).
In experiment [30] the target is HIV-1 Env of isolate MGRM-AG-001 (subtype AG) (HIV-1).
The target of experiment [31] is HIV-1 Env of isolate MGRM-A-008 (subtype A) (HIV-1).
The target of experiment [32] is HIV-1 envelope glycoprotein (Env) of isolate MGRM-C-022 (HIV-1).
Experiment [33] concerns the target HIV-1 Env of isolate MGRM-A-004 (HIV-1).
The target in experiment [34] is HIV-1 Env of isolate 93IN905 (subtype C) (HIV-1).
The target of experiment [35] is HIV-1 Env of isolate MGRM-AE-008 (subtype AE) (HIV-1).
In experiment [36] the target is HIV-1 JRCSF Env (pseudovirus, clade B) (HIV-1) (UniProt P20871).
Experiment [37] has as its target HIV-1 Env of isolate MGRM-F1-014 (HIV-1).
The target of experiment [38] is HIV-1 Env of isolate MGRM-F1-022 (HIV-1).
For experiment [39], the target named is HIV-1 Env of isolate MGRM-F1-017 (HIV-1).

4980_N08 (PGT-143) (antibody), sequence (VH): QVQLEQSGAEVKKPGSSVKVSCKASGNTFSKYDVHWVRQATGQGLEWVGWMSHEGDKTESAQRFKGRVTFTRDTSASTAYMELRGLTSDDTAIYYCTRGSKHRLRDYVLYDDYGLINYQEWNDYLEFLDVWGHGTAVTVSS
4980_N08 (PGT-143) (antibody), sequence (VL): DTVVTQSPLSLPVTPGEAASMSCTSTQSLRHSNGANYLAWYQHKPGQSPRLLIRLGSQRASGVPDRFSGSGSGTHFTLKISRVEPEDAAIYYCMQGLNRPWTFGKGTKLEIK
5345_I01 (PGT-137) (antibody), sequence (VH): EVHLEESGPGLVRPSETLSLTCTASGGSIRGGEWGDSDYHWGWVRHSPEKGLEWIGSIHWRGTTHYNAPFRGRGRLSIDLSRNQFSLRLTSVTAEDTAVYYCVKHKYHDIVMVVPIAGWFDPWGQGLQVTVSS
5345_I01 (PGT-137) (antibody), sequence (VL): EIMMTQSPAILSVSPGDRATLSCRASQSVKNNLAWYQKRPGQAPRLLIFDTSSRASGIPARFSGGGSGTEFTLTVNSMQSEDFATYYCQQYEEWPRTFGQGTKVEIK
4995_E20 (PGT-142) (antibody), sequence (VH): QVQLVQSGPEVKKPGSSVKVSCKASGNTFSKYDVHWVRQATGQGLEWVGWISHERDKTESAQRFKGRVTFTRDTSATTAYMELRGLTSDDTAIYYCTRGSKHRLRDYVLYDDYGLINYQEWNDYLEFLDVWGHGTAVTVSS
4995_E20 (PGT-142) (antibody), sequence (VL): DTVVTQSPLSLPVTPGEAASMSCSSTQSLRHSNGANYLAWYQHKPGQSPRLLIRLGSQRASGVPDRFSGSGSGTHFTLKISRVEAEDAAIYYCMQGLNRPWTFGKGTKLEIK
4970_K22 (PGT-144) (antibody), sequence (VH): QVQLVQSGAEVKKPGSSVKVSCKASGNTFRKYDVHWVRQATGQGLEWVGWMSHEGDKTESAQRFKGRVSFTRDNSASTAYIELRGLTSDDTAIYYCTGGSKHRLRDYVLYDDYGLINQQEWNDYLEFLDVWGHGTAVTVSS
4970_K22 (PGT-144) (antibody), sequence (VL): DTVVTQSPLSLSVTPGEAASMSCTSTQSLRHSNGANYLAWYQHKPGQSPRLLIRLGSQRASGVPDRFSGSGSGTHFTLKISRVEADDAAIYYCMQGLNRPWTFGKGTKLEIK
5329_C19 (PGT-136) (antibody), sequence (VH): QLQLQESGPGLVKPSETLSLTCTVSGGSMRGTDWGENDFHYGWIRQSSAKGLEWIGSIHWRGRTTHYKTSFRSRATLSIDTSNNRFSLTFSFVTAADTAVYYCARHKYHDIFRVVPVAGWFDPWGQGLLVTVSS
5329_C19 (PGT-136) (antibody), sequence (VL): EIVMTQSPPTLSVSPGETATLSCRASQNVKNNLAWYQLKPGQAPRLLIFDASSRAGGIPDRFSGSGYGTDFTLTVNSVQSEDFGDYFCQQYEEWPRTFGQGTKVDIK
4993_K13 (PGT-141) (antibody), sequence (VH): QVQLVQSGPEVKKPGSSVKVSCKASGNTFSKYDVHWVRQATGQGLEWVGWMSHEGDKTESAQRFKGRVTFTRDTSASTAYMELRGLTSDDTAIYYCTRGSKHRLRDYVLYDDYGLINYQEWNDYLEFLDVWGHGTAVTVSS

For 1496_C09 (PG9) (TCN-109) (antibody), the IC50 (µg/ml), pseudovirus neutralization in experiment [1] was found to be 1.27 µg/mL; in experiment [4] it was 12.4 µg/mL; in experiment [6], 0.08 µg/mL; in [7], 3.08 µg/mL; in [8] it was 0.03 µg/mL; in experiment [9] it was 4.39 µg/mL. The IC50 (µg/ml), pseudovirus neutralization in experiment [13] was 0.58 µg/mL; in experiment [14] it was 6.66 µg/mL; in [15] it was 0.03 µg/mL; in experiment [16], 5.43 µg/mL; in [18] it was 0.16 µg/mL; in experiment [19], 0.32 µg/mL. Further, the half-maximal inhibitory concentration (IC50) (usually the midpoint of a concentration-inhibition curve) was determined as 0.03 µg/mL in experiment [2]; 29.7 µg/mL in [5]; 0.04 µg/mL in experiment [10]; 0.51 µg/mL in experiment [11]; 0.04 µg/mL in experiment [20]. The IC50 (µg/mL), pseudovirus neutralization was found to be 0.163 µg/mL in [3], 1.86 µg/mL in experiment [12] and 14.6 µg/mL in [17]. In [12], this substance yielded an IC50, pseudovirus neutralization of 1.91 µg/mL.
In the case of 4970_K22 (PGT-144) (antibody), the figures for the IC50 (µg/mL), pseudovirus neutralization in [3] and in experiment [17] were 7.92 µg/mL and greater than 50 µg/mL, respectively. In addition, the IC50 (neutralizing activity, pseudovirus) in experiment [21] is greater than 10 µg/mL.
With 4980_N08 (PGT-143) (antibody), the IC50 (µg/mL), pseudovirus neutralization in experiment [3] turned out to be 0.048 µg/mL; in experiment [17] it was 4.77 µg/mL. Further, the IC50 (neutralizing activity, pseudovirus) in [21] was greater than 10 µg/mL.
Consider 4993_K13 (PGT-141) (antibody), for which the figures for the IC50 (µg/mL), pseudovirus neutralization in experiment [3] and in experiment [17] were 0.051 µg/mL and 20.3 µg/mL, respectively. In addition, in experiment [21], the IC50 (neutralizing activity, pseudovirus) was greater than 10 µg/mL.
4995_E20 (PGT-142) (antibody): the IC50 (µg/mL), pseudovirus neutralization in [3] turned out to be 0.054 µg/mL; in [17], 5.95 µg/mL. This substance showed an IC50 (neutralizing activity, pseudovirus) in experiment [21] greater than 10 µg/mL.
As for 5114_A19 (PGT-128) (antibody), the IC50 (µg/mL), pseudovirus neutralization in experiment [22] was found to be 0.017 µg/mL; in experiment [25], 0.008 µg/mL; in experiment [26] it was 0.196 µg/mL; in [27], 0.021 µg/mL; in experiment [28] it was 0.007 µg/mL; in experiment [29], 0.007 µg/mL. For the same substance, the IC50 (µg/mL), pseudovirus neutralization in experiment [30] was 4.73 µg/mL; in experiment [31], greater than 50 µg/mL; in [32], 0.042 µg/mL; in experiment [35], greater than 50 µg/mL. Further, the half-maximal inhibitory concentration (IC50) was 0.014 µg/mL in experiment [23] and greater than 50 µg/mL in experiment [33]. The IC50 neutralization in experiment [24] worked out at 0.143 µg/mL; in experiment [34] it was 0.009 µg/mL.
For the substance 5136_H01 (PGT-131) (antibody), the IC50 (µg/mL), pseudovirus neutralization was 7.75 µg/mL in [22]; greater than 50 µg/mL in experiment [25]; 1.01 µg/mL in experiment [26]; greater than 50 µg/mL in [27]; 0.013 µg/mL in [28]; 0.756 µg/mL in [29]. The IC50 (µg/mL), pseudovirus neutralization is greater than 50 µg/mL in experiment [30], greater than 50 µg/mL in [31], 0.78 µg/mL in [32] and greater than 50 µg/mL in experiment [35]. Further, the IC50 in [23] and in [33] was greater than 50 µg/mL each time. Also, the IC50 neutralization in experiment [24] was greater than 50 µg/mL; in experiment [34], 0.177 µg/mL.
As for 5147_N06 (PGT-130) (antibody), the IC50 (µg/mL), pseudovirus neutralization in experiment [22] was 8.45 µg/mL; in experiment [25] it was greater than 50 µg/mL; in experiment [26], 0.344 µg/mL; in experiment [27] it was 9.46 µg/mL; in experiment [28], 0.004 µg/mL; in [29], 0.019 µg/mL. The IC50 (µg/mL), pseudovirus neutralization is greater than 50 µg/mL in experiment [30], greater than 50 µg/mL in experiment [31], 0.127 µg/mL in experiment [32] and greater than 50 µg/mL in [35]. The values for the half-maximal inhibitory concentration (IC50) in experiment [23] and in experiment [33] were 21.4 µg/mL and greater than 50 µg/mL, respectively. The IC50 neutralization in experiment [24] stood at 5.18 µg/mL; in [36], 0.0089 µg/mL; in experiment [34] it was 0.02 µg/mL. The substance also showed a Neutralization by PGT-130, IC50 in [21] of 0.0345 µg/mL. In addition, the Neutralization by PGT-130, IC80 in [21] came out at 0.573 µg/mL. This substance registered a Neutralization by PGT-130, IC90 in experiment [21] of 2.88 µg/mL. The same substance had a Neutralization by PGT-130, IC95 in experiment [21] greater than 10 µg/mL. Also, the neutralization IC50 (pseudovirus) in experiment [21] turned out to be 0.0345 µg/mL. This substance also returned an IC50, pseudovirus neutralization in experiment [12] greater than 10 µg/mL.
Turning to 5329_C19 (PGT-136) (antibody), the IC50 (µg/mL), pseudovirus neutralization is greater than 50 µg/mL in experiment [22]; greater than 50 µg/mL in [25]; 11.1 µg/mL in [26]; greater than 50 µg/mL in experiment [27]; greater than 50 µg/mL in [28]; greater than 50 µg/mL in [29]. Moreover, the IC50 (µg/mL), pseudovirus neutralization in [30], in experiment [31], in experiment [32] and in [35] was greater than 50 µg/mL each time. For the same substance, the IC50 in experiment [23] and in experiment [33] was greater than 50 µg/mL throughout. For the same substance, the figures for the IC50 neutralization in [24], in experiment [36] and in experiment [34] were greater than 50 µg/mL, greater than 10 µg/mL and 0.011 µg/mL, respectively. In [21], this substance registered an IC50 (neutralizing activity, pseudovirus) greater than 10 µg/mL. In experiment [12], this substance registered an IC50, pseudovirus neutralization of 0.0915 µg/mL.
Take 5345_I01 (PGT-137) (antibody): the IC50 (µg/mL), pseudovirus neutralization in [22] is greater than 50 µg/mL; in [25], 49.2 µg/mL; in experiment [26], 1.98 µg/mL; in experiment [27], greater than 50 µg/mL; in experiment [28], 18.5 µg/mL; in experiment [29] it was 6.3 µg/mL. Also, the IC50 (µg/mL), pseudovirus neutralization in experiment [30], in experiment [31], in experiment [32] and in experiment [35] was greater than 50 µg/mL in each case. For the same substance, the half-maximal inhibitory concentration (IC50) in experiment [23] and in experiment [33] was greater than 50 µg/mL throughout. The IC50 neutralization in [24] is greater than 50 µg/mL; in experiment [34] it was 0.042 µg/mL.
Regarding PGV04 (antibody), the figures for the IC50 (µg/mL), pseudovirus neutralization in experiment [3], in experiment [12] and in experiment [17] were 0.033 µg/mL, 0.201 µg/mL and 0.027 µg/mL, respectively.
Regarding VRC01 (antibody), the IC50 (µg/mL), pseudovirus neutralization in [3] was determined as 0.025 µg/mL; in [17], 0.06 µg/mL. In addition, the half-inhibitory concentration (IC50) in [29] was 0.075 µg/mL; in experiment [37] it was 0.056 µg/mL; in [38], 0.055 µg/mL; in experiment [39] it was 1.08 µg/mL.
